Experimental findings from patent publication US20250237628A1 (JUNO THERAPEUTICS, published 2025) are described below.

Test [1] deals with T1, Strep-Tactin M2 streptavidin mutein covalently immobilised on chromatography resin (Streptomyces avidinii, UniProt P22629 38-163, covalently coupled to the resin (CNBr-activated Sephadex G-50, agarose, or epoxy-activated polystyrene)).
T1 construct: also called immobilized Strep-Tactin; STREP-TACTIN M2 multimer reagent
Nature of the test: loading of Fab on Strep-Tactin Sephadex G50 resin, 20 min at 4 °C.
Procedure: A 50% suspension of Sephadex G50 contained approximately 70 μg of covalently coupled 7 Strep-Tactin®/mL of the bead suspension. Following immobilization of STREP-TACTIN® onto the stationary phase, two mL of the suspension of Sephadex G50 with Strep-Tactin® was incubated with 10 μg of a selection agent specific to a T cell surface selection marker for 20 min at 4° C. in order to allow binding of the Fab fragment to the immobilized Strep-Tactin® reagent. The suspension was then filled in a plastic minicolumn with a 90 micrometer frit at the bottom. The column was equilibrated with PBS (phosphate buffered saline) containing 0.5% bovine serum albumin (PBSA buffer) to give a bed volume of 1 mL.

Test [2] concerns the target T2, CD4 on the surface of human T cells (human, UniProt P01730 26-458).
T2 construct: whole, on cells; also called selection marker CD4
As to the kind of experiment: affinity column cell selection from apheresis, surface marker MFI of the collected cells by flow cytometry, 24 h with or without anti-CD3/anti-CD28 oligomeric reagent. For orientation: In flow cytometry, cells or beads pass a laser one at a time.
Procedure: Following immobilization of STREP-TACTIN® onto the stationary phase, two mL of the suspension of Sephadex G50 with Strep-Tactin® was incubated with 10 μg of a selection agent specific to a T cell surface selection marker for 20 min at 4° C. in order to allow binding of the Fab fragment to the immobilized Strep-Tactin® reagent. The suspension was then filled in a plastic minicolumn with a 90 micrometer frit at the bottom. The column was equilibrated with PBS (phosphate buffered saline) containing 0.5% bovine serum albumin (PBSA buffer) to give a bed volume of 1 mL.
As a control, an apheresis sample was loaded onto the anti-CD3 affinity column but without incubation in the presence of the anti-CD3/anti-CD28 oligomeric stimulatory reagent.

B1: anti-CD4 Fab fragment m13B8.2 with Twin Strep-Tag (Fab, V domains shown)
VH: QVQLKQSGPGLVQPSQSLSITCTVSGFSLTTFGVHWVRQSPGKGLEWLGVIWASGITDYNVPFMSRLSITKDNSKSQVFFKLNSLQPDDTAIYYCAKNDPGTGFAYWGQGTLVTVSA
VL: DIQMTQSPASLSASVGETVTFTCRASEMIYSYLAWYQQKQGKSPQLLVHDAKTLAEGVPSRFSGGGSGTQFSLKINTLQPEDFGTYYCQAHYGNPPTFGGGTKLEIKR
Regarding B1, the binding result in test [1] and in test [2] was “binds” throughout.
